{"source": "the nanobody polyreactivity screen of Harvey et al. (2022)"}
{"test": "yeast display, Sf9 membrane polyspecificity reagent, FACS + sequencing; frameworks hold sequencing errors", "method_in_brief": "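A nanobody's polyreactivity label depends on the gate it was sorted from. Yeast display cells were stained with 10% biotinylated, detergent-solubilized Sf9 membrane reagent for 1 hour at 4 °C, enriched on streptavidin microbeads and sorted by FACS. The low and high (top ~1%) gates were set on anti-HA fluorescence for expression and streptavidin fluorescence for reagent binding.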"}
{"sequence": "QVQLVESGGGLVQAGGSLRLSCAASGRIFYNAMGWYRQAPGKERELVAAITSNGGSTYYADSVKGRFTISRDNAKNTVYLQMNSLKPEDTAVYYCNAAIRYTASATHAFDYWGQGTQVTVSS", "polyreactivity (PSR sort gate)": "low polyreactivity"}
{"sequence": "QVQLVESGGGLVQAGGSLRLSCAASGRIFSVYAMGWSRQAPGKERELVATIRWGGGSTYYADSVKGRFTISRDNAKNTVYLQMNSLKPEDTAVYYCAAGWRGGRYRYFAYDYWGQGTQVTVSS", "polyreactivity (PSR sort gate)": "high polyreactivity"}
{"sequence": "QVQLVESGGGLVQAGGSLRLSCAASGSTFWFYAMGWYRQAPGKERELVAVISNSGSTYYADSVKGRFTISRDNAKNTVYLQMNSLKPEDTAVYYCNKDGGGDSYWYDYWGQATQVTVSS", "polyreactivity (PSR sort gate)": "low polyreactivity"}
{"sequence": "QVQLVESGGGLVQAGGSLRLSCAASGYIFWFNAMGWYRQAPGKERELVAAITSSDASTNYADSVKGRFTISRDNAKNTVYLQMNSLKPEDTAVYYCAKSSYPRDGYESWGQGTQVTVSS", "polyreactivity (PSR sort gate)": "low polyreactivity"}
{"sequence": "QVQLVESGGGLVQAGGSLRLSCAASGRIIYAYAMGWYRQAPGKERELVAAITIGGNTNYADSVKGRFTISRDNAKNTVYLQMNSLKPEDTAVYYCNARNYYYPWRGYHVVGSNDLGYWGQGTQVTVSS", "polyreactivity (PSR sort gate)": "low polyreactivity"}
{"sequence": "QVQLVESGGGLVQAGGSLRLSCAASGSIFEYYAMGWYRQAPGKERELVATITGTDSTYYADSVKGRFTISRDNAKNTVYLQMNSLKPEDTADCAADRAASRPDYDYWGQGTQVTVSS", "polyreactivity (PSR sort gate)": "low polyreactivity"}
{"sequence": "QVQLVESGGGLVHAGGSLRLSCAASGRIFTPYAMGWYRQAPGKERELVAAISGRGGSTYYADSVKGRFTISRDNAKNTVYLQMNSLKPEDTAVYYCAATYFYVYDYWLDYWGQGTQVTVSS", "polyreactivity (PSR sort gate)": "high polyreactivity"}
{"sequence": "QVHLVESGGGLVQAGGSLRLSCAASGLIFSDYAMGWYRQAPGKERELVAAIRSGGRTYYADSVKGRFTISRDNAKNTVYLQMNSLKPEDTAVYYCNKLYRRSPVPREYDYWGQGTQVTVSS", "polyreactivity (PSR sort gate)": "high polyreactivity"}
{"sequence": "QVQLVESGGGLVQAGGSLRLTCAASGITFQYYVMGWYRHAPGKERELVAAITRRGGSTYYADSVKGRFTISRDNAKNTVYLQMNSLKPEDTAVYYCAAAITYLPAYRYNYWGQGTQVTVSS", "polyreactivity (PSR sort gate)": "high polyreactivity"}
{"sequence": "QVQLVESGGGLVQAGGSLRLSCAASGYTFNYYAMGWYRQAPGKERELVAAIRSTGSTNYADSVKGRFTISRDNAKNTVYLQMKSLKPEDTAVYYCAAKIRKDYSIQGYDYWGQGSQVTVSS", "polyreactivity (PSR sort gate)": "high polyreactivity"}
{"sequence": "QVQLVESGGGLVQAGGSLRLSCAASGFTFPRYAMGWYRQAPGKERELVAVITRRGGSTYYADSVKGRFTISRDNAKNTVYLQMNSLKPEDTAVYDCAASDPSNKSSRPGYSYDSDSWGQGTQVTVSS", "polyreactivity (PSR sort gate)": "high polyreactivity"}
{"sequence": "QVQLVESGGGLGQAGGSLRLSCAASGFTFPWYAMGWYRPAPGKERELVASISYRGDSTYYADSVKGRFTISRDNAKNTVYLEMNSLKPEDTAVYYCNNSLASYYLPGFDYWGQGTQVTVSS", "polyreactivity (PSR sort gate)": "low polyreactivity"}
{"sequence": "QVQLVESGGGLVQAGGSLRLSCAASGLTFVYYAMGWYRQAPGKERELLAAISRSGGSTYYADSVKGRFTISRDNAKNTVYLQMNSLKPEDTAVYYCAAEATKWFGVVTMDYWGQGTQVTVSS", "polyreactivity (PSR sort gate)": "high polyreactivity"}
{"sequence": "QVQLVESGGGLVQAGGSLRLSCAASGLIFYDNMGWYGPAPGKERELVAAISSSGGSTSYADSVKGRFTISRDNAKNTVYLQMNSLKPEDTAVYYCAADSYPAYLGFVCFDYWGQGTQVTVSS", "polyreactivity (PSR sort gate)": "low polyreactivity"}
{"sequence": "QVQLVESGGGLVQAGGSLRLSCAASGSIFVSYAMGWYRQAPGKERELVAAIRRGGTSTYYEDSVKGRFTISRDNAKNTVYLQMNSLKPEDTAVYYCAAPRYFTRYRPLGIYDYWGQGTQVTVSS", "polyreactivity (PSR sort gate)": "high polyreactivity"}
{"sequence": "QVQLVESGGGLVQAGGSLRLSCAASGLIFYYYAMGWYRQAPGKERELVAAITWTAGSTSYADSVKGRFTISRDNAKNTVYLQMNSLKPEDTAVYYCAADYRHDTFSNEYDYWGQGTQVTVSS", "polyreactivity (PSR sort gate)": "low polyreactivity"}
{"sequence": "QVQLVESGGGLVQAGGSLRISCAASGRIFATNAMGWYRQAPGKERELVAVITGGGDTNYADSVKGRFTISRDNAKNTVYLQMNSLKPEDTAVYYCAAEGSFYRYHVGSDYWGQGTQVTVSS", "polyreactivity (PSR sort gate)": "low polyreactivity"}
